Source: PMC12743552, “Key residues regulating von Willebrand factor A1/A2 interactions: insights from molecular dynamics simulations and experimental validation” (Research and Practice in Thrombosis and Haemostasis, 2025)
Positions count from the first letter of the chain named. Names and notes keep the numbering of the source.

B1: VWF-A1 mutant A1_mut (D1323A/R1334A/Q1367A) (domain or fragment)
chain: QEPGGLVVPPTDAPVSPTTLYVEDISEPPLHDFYCSRLLDLVFLLDGSSRLSEAEFEVLKAFVVDMMERLRISQKWVRVAVVEYHAGSHAYIGLKDAKRPSELRRIASQVKYAGSQVASTSEVLKYTLFAIFSKIDRPEASRITLLLMASQEPQRMSRNFVRYVQGLKKKKVIVIPVGIGPHANLKQIRLIEKQAPENKAFVLSSVDELEQQRDEIVSYLCDLAPEAPPPTLPPD
notes: von Willebrand factor, A1 domain, residues Q1238-D1472, with D1323A, R1334A and Q1367A; source: HEK293F cells, culture medium collected, purified (Ni2+-Hi-Trap chelating column); not shown: His tag, N-terminal, kept
B2: VWF-A2 mutant A2_mut (V1546A/R1575A/E1598A) (domain or fragment)
chain: MAQVTVGPGLLGVSTLGPKRNSMVLDVAFVLEGSDKIGEADFNRSKEFMEEVIQRMDVGQDSIHVTVLQYSYMATVEYPFSEAQSKGDILQRVREIRYQGGNATNTGLALRYLSDHSFLVSQGDRAQAPNLVYMVTGNPASDEIKRLPGDIQVVPIGVGPNANVQELERIGWPNAPILIQDFETLPREAPDLVLQRCCSG
notes: von Willebrand factor, A2 domain, residues M1473-G1672, with V1546A, R1575A and E1598A; source: HEK293F cells, culture medium collected, purified (Ni2+-Hi-Trap chelating column); not shown: His tag, N-terminal, kept
B3: recombinant VWF-A2 (von Willebrand factor A2 domain, amino acids M1473-G1672), wild type (domain or fragment)
chain: B2 chain with A74V, A103R, A126E
modifications: biotinylated in the BLI assay (site not stated); not said to be biotinylated in the AFM assay
notes: von Willebrand factor, A2 domain, residues M1473-G1672; cloned from a full-length VWF plasmid (MiaoLingBio); Secreted into the medium of HEK293F cells; The discussion calls the host HEK293 cells; source: HEK293F cells, culture medium collected, purified (Ni2+-Hi-Trap chelating column); not shown: His tag, N-terminal, kept

Key:
[1] = molecular target: von Willebrand factor A2 G1481-R1668 (Homo sapiens) (UniProt P04275); details: cited from earlier work
[2] = molecular target: B3; experiment: atomic force microscopy (adhesion frequency and rupture force); VWF-A2 (15 ug/mL) held on the cantilever tip and VWF-A1 or its variants (15 ug/mL) on polystyrene dishes, each through adsorbed mouse anti-His mAb; blocked with 2% BSA; approach-retraction speed 200 nm/s in 2% BSA; 100 contact cycles a point; details: both partners purified
[3] = molecular target: T1, recombinant VWF-A1 (von Willebrand factor A1 domain, amino acids Q1238-D1472), wild type (UniProt P04275 1238-1472); experiment: BLI; biotinylated A2 (10 ug/mL) immobilised on streptavidin biosensors, quenched with biocytin; A1 125-4000 nM in solution; Octet R8, 30 °C, 1000 rpm; PBS with 0.02% Tween-20 and 0.1% BSA; global fit to a 1:1 Langmuir model; details: both partners purified
T1 construct: von Willebrand factor, A1 domain, residues Q1238-D1472; cloned from a full-length VWF plasmid (MiaoLingBio); Secreted into the medium of HEK293F cells; The tag is 6xHis to judge from the anti-6xHis antibody used for capture; also called WT A1; WT VWF-A1; source: HEK293F cells, culture medium collected, purified (Ni2+-Hi-Trap chelating column); not shown: His tag, N-terminal, kept

[4] = molecular target: B1; experiment: as above; details: both partners purified

Molecule: von Willebrand factor A1 A1 (from UniProt P04275)
Kd [1]: 0.0649 µM

Molecule: B1
adhesion frequency [2]: 14.5%
average rupture force [2]: 41.5 pN
central peak value (XC) of the rupture force distribution [2]: 35 pN

Molecule: B2
Kd [3]: 4.2 µM
koff [3]: 0.046 s⁻¹
kon [3]: 11000 M⁻¹ s⁻¹

Molecule: B3
Kd [3]: 2.16 µM
koff [3]: 0.037 s⁻¹
kon [3]: 17000 M⁻¹ s⁻¹
Kd [4]: 6.1 µM
koff [4]: 0.081 s⁻¹
kon [4]: 13000 M⁻¹ s⁻¹
